Test results taken from patent US20100184658A1 (published 2010).

Key:
Experiment in all cases: cell-based or functional assay
[1] = target: MAPK9 (JNK2) Mitogen-activated protein kinase 9 (UniProt P45984 1-424, limits assumed)
[2] = target: T1, TAOK2 (TAO1) TAO kinase 2 (UniProt Q9UL54 1-314, limits assumed)
T1 sequence (looked up): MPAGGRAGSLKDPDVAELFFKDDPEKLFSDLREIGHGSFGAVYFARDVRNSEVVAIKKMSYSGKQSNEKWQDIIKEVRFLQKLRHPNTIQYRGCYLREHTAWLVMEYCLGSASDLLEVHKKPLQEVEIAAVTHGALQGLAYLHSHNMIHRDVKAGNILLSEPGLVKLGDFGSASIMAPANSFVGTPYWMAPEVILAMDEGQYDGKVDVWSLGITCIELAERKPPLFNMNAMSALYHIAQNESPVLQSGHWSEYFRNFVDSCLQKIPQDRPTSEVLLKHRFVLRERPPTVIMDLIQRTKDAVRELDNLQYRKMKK

[3] = target: T2, NEK9 NIMA (never in mitosis gene a)-related kinase 9 (UniProt Q8TD19 1-979, limits assumed)
T2 sequence (looked up): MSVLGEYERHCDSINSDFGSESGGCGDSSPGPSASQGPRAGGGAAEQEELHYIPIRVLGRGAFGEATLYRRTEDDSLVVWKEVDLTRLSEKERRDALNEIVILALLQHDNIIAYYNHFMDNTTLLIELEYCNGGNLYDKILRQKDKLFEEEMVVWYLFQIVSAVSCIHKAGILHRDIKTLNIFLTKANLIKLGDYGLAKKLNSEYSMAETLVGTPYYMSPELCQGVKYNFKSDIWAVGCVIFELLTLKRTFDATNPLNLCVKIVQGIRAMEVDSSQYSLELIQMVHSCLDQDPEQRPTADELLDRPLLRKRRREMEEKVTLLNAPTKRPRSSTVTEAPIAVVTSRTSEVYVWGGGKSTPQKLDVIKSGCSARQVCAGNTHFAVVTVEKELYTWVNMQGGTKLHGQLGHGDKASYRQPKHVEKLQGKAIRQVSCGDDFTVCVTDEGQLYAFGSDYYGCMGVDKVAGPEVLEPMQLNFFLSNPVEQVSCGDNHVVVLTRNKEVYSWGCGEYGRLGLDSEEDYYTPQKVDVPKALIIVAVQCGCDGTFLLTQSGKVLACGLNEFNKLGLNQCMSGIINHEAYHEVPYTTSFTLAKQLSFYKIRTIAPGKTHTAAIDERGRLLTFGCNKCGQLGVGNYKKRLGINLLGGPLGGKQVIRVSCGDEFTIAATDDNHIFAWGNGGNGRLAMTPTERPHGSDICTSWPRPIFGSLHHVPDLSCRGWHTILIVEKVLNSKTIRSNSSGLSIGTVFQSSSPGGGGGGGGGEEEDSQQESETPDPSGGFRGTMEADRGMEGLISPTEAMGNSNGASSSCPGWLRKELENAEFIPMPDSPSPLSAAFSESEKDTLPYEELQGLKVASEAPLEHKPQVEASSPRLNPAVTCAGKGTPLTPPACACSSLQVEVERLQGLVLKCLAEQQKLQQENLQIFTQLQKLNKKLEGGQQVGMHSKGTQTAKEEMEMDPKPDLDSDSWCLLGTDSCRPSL

SRPK2 = SRPK2 (UniProt P78362 1-688, limits assumed)
SRPK2, sequence (P78362 whole entry): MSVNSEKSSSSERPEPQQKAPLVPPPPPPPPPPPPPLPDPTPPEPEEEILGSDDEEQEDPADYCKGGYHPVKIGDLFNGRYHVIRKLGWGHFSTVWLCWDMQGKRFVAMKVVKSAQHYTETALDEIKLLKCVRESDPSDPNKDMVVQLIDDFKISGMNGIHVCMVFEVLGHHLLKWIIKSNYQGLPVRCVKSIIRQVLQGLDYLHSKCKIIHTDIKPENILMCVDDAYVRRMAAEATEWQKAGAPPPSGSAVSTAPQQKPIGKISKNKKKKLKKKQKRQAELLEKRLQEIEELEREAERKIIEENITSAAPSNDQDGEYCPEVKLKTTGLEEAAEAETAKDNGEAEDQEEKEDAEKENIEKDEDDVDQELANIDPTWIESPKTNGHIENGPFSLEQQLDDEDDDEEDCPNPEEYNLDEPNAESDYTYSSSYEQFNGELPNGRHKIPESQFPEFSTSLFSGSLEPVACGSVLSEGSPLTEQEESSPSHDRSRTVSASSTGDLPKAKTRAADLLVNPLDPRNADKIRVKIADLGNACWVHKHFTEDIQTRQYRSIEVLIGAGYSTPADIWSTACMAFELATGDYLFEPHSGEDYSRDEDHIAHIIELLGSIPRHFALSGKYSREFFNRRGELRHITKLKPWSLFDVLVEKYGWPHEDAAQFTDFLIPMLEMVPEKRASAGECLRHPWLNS

MATK (HYL) = target: T3, MATK (HYL) (UniProt P42679 1-507, limits assumed)
T3 sequence (looked up): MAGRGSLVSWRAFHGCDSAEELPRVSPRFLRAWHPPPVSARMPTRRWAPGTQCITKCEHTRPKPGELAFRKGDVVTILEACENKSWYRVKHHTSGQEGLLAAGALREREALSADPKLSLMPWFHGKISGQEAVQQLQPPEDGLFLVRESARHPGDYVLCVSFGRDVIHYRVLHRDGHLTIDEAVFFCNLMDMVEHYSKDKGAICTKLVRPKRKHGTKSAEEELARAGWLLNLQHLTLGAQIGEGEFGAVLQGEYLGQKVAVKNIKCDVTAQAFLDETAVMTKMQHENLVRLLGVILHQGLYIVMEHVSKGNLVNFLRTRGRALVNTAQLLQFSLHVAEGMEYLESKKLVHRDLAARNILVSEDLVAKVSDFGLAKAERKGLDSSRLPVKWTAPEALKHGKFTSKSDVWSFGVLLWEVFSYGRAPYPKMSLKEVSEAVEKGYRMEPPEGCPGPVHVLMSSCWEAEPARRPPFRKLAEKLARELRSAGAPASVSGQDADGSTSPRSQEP

PRKCZ (PKC zeta) = target: T4, PRKCZ (PKC zeta) (human (printed as (h)), UniProt Q05513 1-592, limits assumed)
T4 sequence (looked up): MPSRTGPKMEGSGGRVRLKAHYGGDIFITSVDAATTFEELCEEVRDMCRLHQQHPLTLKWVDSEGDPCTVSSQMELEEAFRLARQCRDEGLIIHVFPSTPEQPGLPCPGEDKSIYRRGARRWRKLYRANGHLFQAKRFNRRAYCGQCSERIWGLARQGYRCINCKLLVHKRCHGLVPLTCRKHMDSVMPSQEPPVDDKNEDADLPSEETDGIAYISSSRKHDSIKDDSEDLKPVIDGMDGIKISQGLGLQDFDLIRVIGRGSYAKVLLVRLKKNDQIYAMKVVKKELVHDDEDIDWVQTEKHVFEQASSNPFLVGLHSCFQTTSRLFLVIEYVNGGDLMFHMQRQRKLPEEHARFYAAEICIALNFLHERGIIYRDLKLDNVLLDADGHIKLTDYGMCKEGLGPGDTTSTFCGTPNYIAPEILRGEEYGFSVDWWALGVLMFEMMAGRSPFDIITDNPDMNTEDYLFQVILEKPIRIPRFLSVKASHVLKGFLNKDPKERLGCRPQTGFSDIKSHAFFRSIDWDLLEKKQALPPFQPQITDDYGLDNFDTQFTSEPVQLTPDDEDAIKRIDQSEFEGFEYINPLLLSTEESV

## SGRPPMIVWFNRPFLIAVSHTHGQTILFMAKVINPVGA [D3 peptide]
[1]
  % Inhibition mean: 92.9%
[2]
  % Inhibition mean: 100%
[3]
  % Inhibition mean: 108%
SRPK2
  % Inhibition mean: 79.2%
MATK (HYL)
  % Inhibition mean: 55.6%
PRKCZ (PKC zeta)
  D3 at 0.1 µM % activity: 95%
  D3 at 1 µm % activity: 42%
  IC50: 1040 nM
